The record followed here is article PMC4020580.

In the assay the target is bovine trypsin (bovine).

“labeled single-Cys S47C α1AT (natural protein)” gave a stoichiometry of inhibition (SI) of bovine trypsin of 1.1.

Consider “labeled single-Cys S313C α1AT (natural protein)”, for which the stoichiometry of inhibition (SI) of bovine trypsin came out at 1.1. On to “α1AT Ser313Cys double-Cys variant (2Cys313), unlabeled (natural protein)”, for which the stoichiometry of inhibition (SI) of bovine trypsin came to 1.1.
